# In the oligonucleotide strings, read from the 5' end, every base follows the letter of its sugar. An asterisk marks phosphorothioate; unmarked linkages are phosphodiester. Other units and linkages are bracketed, terminal groups are in braces. A string of capitals states the bases alone. m = 2'-O-methyl; r = 2'-OH (RNA)
# B1: GA235: PCSK9 gRNA; protospacer CACCGCTGCCGGCAACTTCC (SEQ ID NO: 228) (nucleic acid)
# guide: CACCGCUGCCGGCAACUUCCGUUUUAGAGCUAGAAAUAGCAAGUUAAAAUAAGGCUAGUCCGUUAUCAACUUGAAAAAGUGGCACCGAGUCGGUGCUUUU
# modifications: sugars from the 5' end m3 r94 m3, linkages s3 o93 s3 (s phosphorothioate, o phosphodiester), T or U not given here
# B2: GA238: PCSK9 gRNA; protospacer GCACGACCCCAGCCCTCGCC (SEQ ID NO: 231) (nucleic acid)
# guide: GCACGACCCCAGCCCUCGCCGUUUUAGAGCUAGAAAUAGCAAGUUAAAAUAAGGCUAGUCCGUUAUCAACUUGAAAAAGUGGCACCGAGUCGGUGCUUUU
# modifications: sugars from the 5' end m3 r94 m3, linkages s3 o93 s3 (s phosphorothioate, o phosphodiester), T or U not given here
# B3: GA242: PCSK9 gRNA; protospacer TCACCGCTGCCGGCAACTTC (SEQ ID NO: 235) (nucleic acid)
# guide: UCACCGCUGCCGGCAACUUCGUUUUAGAGCUAGAAAUAGCAAGUUAAAAUAAGGCUAGUCCGUUAUCAACUUGAAAAAGUGGCACCGAGUCGGUGCUUUU
# modifications: sugars from the 5' end m3 r94 m3, linkages s3 o93 s3 (s phosphorothioate, o phosphodiester), T or U not given here
# B4: GA243: PCSK9 gRNA; protospacer GGCGAGGGCTGGGGTCGTGC (SEQ ID NO: 236) (nucleic acid)
# guide: GGCGAGGGCUGGGGUCGUGCGUUUUAGAGCUAGAAAUAGCAAGUUAAAAUAAGGCUAGUCCGUUAUCAACUUGAAAAAGUGGCACCGAGUCGGUGCUUUU
# modifications: sugars from the 5' end m3 r94 m3, linkages s3 o93 s3 (s phosphorothioate, o phosphodiester), T or U not given here
# B5: GA244: PCSK9 gRNA; protospacer TTCCGAATAAACTCCAGGCC (SEQ ID NO: 237) (nucleic acid)
# guide: UUCCGAAUAAACUCCAGGCCGUUUUAGAGCUAGAAAUAGCAAGUUAAAAUAAGGCUAGUCCGUUAUCAACUUGAAAAAGUGGCACCGAGUCGGUGCUUUU
# modifications: sugars from the 5' end m3 r94 m3, linkages s3 o93 s3 (s phosphorothioate, o phosphodiester), T or U not given here
# B6: GA405: gRNA targeting PCSK9 with modifications to the tracr, for SpCas9 (nucleic acid)
# guide: mU*mC*mA*rGrCrUrCrCrArGrGrCrGrGrUrCrCrUrGrGmGrUrUrUrUrArGmAmGmCmUmAmGmAmAmAmUmAmGmCmAmArGrUrUmArAmArAmUrAmAmGmGmCmUmArGrUrCmCrGrUrUrAmUmCrArAmCmUmUmGmAmAmAmAmAmGmUmGmGmCmAmCmCmGmAmGmUmCmGmGmUmGmCmU*mU*mU*mUmUrUmU
# B7: GA395 (nucleic acid)
# guide: mU*mC*mA*rGrCrUrCrCrArGrGrCrGrGrUrCrCrUrGrGmGrUrUrUrUrArGmAmGmCmUmArGmAmAmAmUmAmGmCmAmArGrUrUmArAmArAmUrAmAmGmGmCmUmArGrUmCmCrGrUrUrAmUmCrArAmCmUmUrGmAmAmAmAmAmGmUmGrGmCmAmCmCmGmAmGmUmCmGmGmUmGmCmU*mU*mU*mUmUmUmU
# B8: GA396 (nucleic acid)
# guide: mU*mC*mA*rGrCrUrCrCrArGrGrCrGrGrUrCrCrUrGrGmGrUrUrUrUrArGmAmGmCmUmArGmAmAmAmUmAmGmCmAmArGrUrU*mArAmArAmUrAmAmGmGmCmUmArGrUmCmCrGrUrUrAmUmCrArAmCmUmUrGmAmAmAmAmAmGmUmGrGmCmAmCmCmGmAmGmUmCmGmGmUmGmCmU*mU*mU*mUmUmUmU
# B9: GA397 (nucleic acid)
# guide: mU*mC*mA*rGrCrUrCrCrArGrGrCrGrGrUrCrCrUrGrGmGrUrUrUrUrArGmAmGmCmUmArGmAmAmAmUmAmGmCmAmArGrUrUmArAmArAmUrAmAmGmGmCmUmArGrUmCmCrGrUrU*rAmUmCrArAmCmUmUrGmAmAmAmAmAmGmUmGrGmCmAmCmCmGmAmGmUmCmGmGmUmGmCmU*mU*mU*mUmUmUmU
# B10: GA398 (nucleic acid)
# guide: mU*mC*mA*rGrCrUrCrCrArGrGrCrGrGrUrCrCrUrGrGmGrUrUrUrUrArGmAmGmCmUmAmGmAmAmAmUmAmGmCmAmArGrUrUmArAmArAmUrAmAmGmGmCmUmArGrUrCmCrGrUrUrAmUmCrArAmCmUmUmGmAmAmAmAmAmGmUmGmGmCmAmCmCmGmAmGmUmCmGmGmUmGmCmU*mU*mU*mUmUmUmU
# B11: GA399 (nucleic acid)
# guide: mU*mC*mA*rGrCrUrCrCrArGrGrCrGrGrUrCrCrUrGrGmGrUrUrUrUrArGmAmGmCmUmAmGmAmAmAmUmAmGmCmAmArGrUrUmArAmArAmUrAmAmGmGmCmUmArGmUrCmCrGrUrUmAmUmCrArAmCmUmUmGmAmAmAmAmAmGmUmGmGmCmAmCmCmGmAmGmUmCmGmGmUmGmCmU*mU*mU*mUmUmUmU
# Tested on: PCSK9 gene
# Assay: PCSK9 gRNA/SpCas9 editing in primary cynomolgus hepatocytes (Tables 2, 22)
# Format: cell-based, cynomolgus monkey
# Conditions: 100 ng/RNA/mL; SpCas9 mRNA MS002 1:1 by weight
# Description: In set of experiments, PCSK9 gRNAs were co-transfected with an equivalent amount (1:1 ratio by weight) of in vitro transcribed commercially available SpCas9 mRNA MS002 purchased from TriLink Biotechnologies into primary human hepatocytes at 2500, 500, or 100 ng/RNA/mL and processed as described in detailed methods. Extracted genomic DNA was analyzed for gene editing at the target site with next-generation sequencing of PCR amplicons generated around the target sites. Samples were prepared using the Nextera XT DNA library preparation kit (Illumina) according to the manufacturer's protocol. Briefly, two rounds of PCR were performed first to amplify the region of interest and second to add DNA sequences required for next generation sequencing and sample identification to the initial product. The final amplicon was sequenced on the Illumina MiSeq instrument according to the manufacturer's protocol. A wide range of editing activities (Table 2) were observed. In a second set of experiments, ANGPTL3 gRNAs were co-transfected with an equivalent amount of in vitro transcribed SpCas9 mRNA (1:1 ratio by weight) into primary human hepatocytes and processed and analyzed similarly (Table 3).
# […] Genomic DNA was processed, sequenced, and analyzed as described in the detailed methods section. GA266 was transfected independently twice to serve as two positive controls.
# Plating, culturing, and transfection of primary hepatocytes. Primary human liver hepatocytes (PHH) and primary cynomolgus liver hepatocytes (PCH) from BioIVT were cultured per the manufacturer's protocol. Briefly, primary human hepatocytes and primary cyno hepatocytes were obtained as frozen aliquots from BioIVT. Four lots of primary human hepatocytes, each derived from a de-identified individual donor, were used for the experiments: STL (main donor) was used for all experiments, including screening experiments and off-target experiments; HLY, JLP, and TLY were used for off-target experiments. The HFG lot of primary cyno hepatocytes were used for experiments. Following the manufacturer's instructions, cells were thawed and rinsed prior to plating in 24-well plates that had been coated with bovine collagen overnight, with a density of approximate 350,000 cells/well in INVITROGRO hepatocyte medium supplemented with TORPEDO antibiotic mix (BioIVT). The cells were thawed and resuspended in hepatocyte thawing medium followed by centrifugation at 100 g for 10 min at 4° C. The supernatant was discarded, and the pelleted cells resuspended in hepatocyte plating medium. Each vial contains approximately 5 million cells that were used for plating one 24-well plate. Plated cells were allowed to settle and adhere for 4-6 h in a tissue culture incubator at 37° C. under 5% CO2 atmosphere. After incubation, cells were checked for monolayer formation. The incubating media were then replaced with fresh hepatocyte maintenance media (complete INVITROGRO medium obtained from BioIVT, the cell line provider). The cells thus became ready for transfection. Each of the gRNAs were co-transfected with an equivalent amount of in vitro transcribed ABE8.8 mRNA (1:1 ratio by molecular weight) into primary human hepatocytes via MessengerMax reagent (Lipofectamine), using various dilutions to assess for editing activity at different concentrations of test article. MessengerMAX from Thermo Fisher is used for transfection. Solution A: desired amount of guide RNA is mixed with 1:1 wt ratio of mRNA in OptiMEM. Solution B: MessengerMAX in OptiMEM. After mixing solutions A and B, the mixture was incubated at room temperature for 20 min. 60 μL of the incubated solution was added dropwise to each cell wells. For protospacer sequences that were a perfect match to the corresponding cynomolgous monkey PCSK9 or ANGPTL3 gene sequence, each gRNA was also co-transfected with an equivalent amount of ABE8.8 mRNA (1:1 ratio by molecular weight) into primary cynomolgous hepatocytes, and followed the same transfection protocol. […]
row,Molecule,Cyno Primary Hepatocyte Editing % 100
1,B1,2.51%
2,B2,0.94%
3,B3,1.79%
4,B4,0.51%
5,B5,1.63%

# Same assay, conditions: 500 ng/RNA/mL; SpCas9 mRNA MS002 1:1 by weight
row,Molecule,Cyno Primary Hepatocyte Editing % 500
1,B1,17.51%
2,B2,4.01%
3,B3,7.13%
4,B4,1.84%
5,B5,7.89%

# Same assay, conditions: 2500 ng/RNA/mL; SpCas9 mRNA MS002 1:1 by weight
row,Molecule,Cyno Primary Hepatocyte Editing % 2500
1,B1,50.03%
2,B2,17.92%
3,B3,31.71%
4,B4,10.18%
5,B5,28.16%

# Same assay, conditions: SpCas9 mRNA MS002, 625 ng/test article/mL, rep1
row,Molecule,Cynomolgus Primary Hepatocytes-% Editing
1,B6,26.2%
2,B7,33.87%
3,B8,44.44%
4,B9,40.72%
5,B10,39.09%
6,B11,37.75%

# Same assay, conditions: SpCas9 mRNA MS002, 625 ng/test article/mL, rep2
row,Molecule,Cynomolgus Primary Hepatocytes-% Editing
1,B6,26.36%
2,B7,34.57%
3,B8,41.53%
4,B9,46.28%
5,B10,44%
6,B11,41.8%

# Same assay, conditions: SpCas9 mRNA MS002, 1250 ng/test article/mL, rep1
row,Molecule,Cynomolgus Primary Hepatocytes-% Editing
1,B6,35.84%
2,B7,41.48%
3,B8,56.02%
4,B9,56.47%
5,B10,56.45%
6,B11,55.55%

# Same assay, conditions: SpCas9 mRNA MS002, 1250 ng/test article/mL, rep2
row,Molecule,Cynomolgus Primary Hepatocytes-% Editing
1,B6,35.88%
2,B7,44.35%
3,B8,52.02%
4,B9,58.68%
5,B10,55.21%
6,B11,53.02%

# Same assay, conditions: SpCas9 mRNA MS002, 2500 ng/test article/mL, rep1
row,Molecule,Cynomolgus Primary Hepatocytes-% Editing
1,B6,41.85%
2,B7,43.91%
3,B8,53.98%
4,B9,56.65%
5,B10,59.85%
6,B11,58.97%

# Same assay, conditions: SpCas9 mRNA MS002, 2500 ng/test article/mL, rep2
row,Molecule,Cynomolgus Primary Hepatocytes-% Editing
1,B6,47.33%
2,B7,49.53%
3,B8,56.84%
4,B9,58.59%
5,B10,63.97%
6,B11,62.75%

# Same assay, conditions: SpCas9 mRNA MS002; 2500, 1250, 625 ng/test article/mL
row,Molecule,editing efficiency compared to positive control GA266
1,B6,slightly lower editing efficiency

# Source: patent publication US20250152746A1, “BASE EDITING OF ANGPTL3 AND METHODS OF USING SAME FOR TREATMENT OF DISEASE” (Verve Therapeutics, Inc., priority 2020, published 2025)
